According to US20100260668A1 (published 2010):
“And” between values parts separate entries of the source, which are not always exact repeats. Equal values may be shown once. Blank lines part the entries; values can stand above or below the binder they belong to.

Legend:
PlGF = molecular target: T1, PlGF (UniProt P49763-2 21-149, limits assumed); assay: direct bind ELISA, antigen on plate; reference antibody
T1 construct: Bought antigen coated on the ELISA plate; also called Placental GF; placental growth factor
T1 sequence (looked up): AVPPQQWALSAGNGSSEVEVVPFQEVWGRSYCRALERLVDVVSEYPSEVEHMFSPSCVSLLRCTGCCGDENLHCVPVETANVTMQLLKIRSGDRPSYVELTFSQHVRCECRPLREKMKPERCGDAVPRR

VEGF = molecular target: T2, VEGF (UniProt P15692 27-191, limits assumed); assay: as above
T2 construct: Bought antigen coated on the ELISA plate; also called vascular endothelial growth factor
T2 sequence (P15692 other isoform, or with tags, fused parts or gaps limits assumed): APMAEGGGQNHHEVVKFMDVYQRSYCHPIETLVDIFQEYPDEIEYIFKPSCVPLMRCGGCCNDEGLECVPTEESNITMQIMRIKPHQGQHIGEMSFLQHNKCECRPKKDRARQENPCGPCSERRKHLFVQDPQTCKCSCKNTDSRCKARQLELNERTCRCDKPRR

VEGF 1-165 aa = molecular target: T3, VEGF 1-165 aa (UniProt P15692 27-191); assay: direct bind ELISA (ref Ab)
T3 construct: Bought antigen coated on the ELISA plate
T3 sequence (P15692 other isoform, or with tags, fused parts or gaps limits assumed): as above

[1] = molecular target: T4, VEGF (VEGF 1-165 aa, R&D Systems 293-VE-010) (UniProt P15692 27-191); assay: Direct bind ELISA, VEGF coated on plate; VEGF domain N-term., HC long/LC long
T4 construct: bought reagent; also called vascular endothelial growth factor
T4 sequence (P15692 other isoform, or with tags, fused parts or gaps limits assumed): as above

[2] = molecular target: T5, his-tagged, recombinant RON protein (R&D Systems # 1947-MS) (UniProt Q04912 25-957, limits assumed); assay: IgG-Fc capture ELISA, his-tagged RON; N-terminal VD
T5 construct: extracellular domain; also called MSP Receptor ECD-His tag

[3] = molecular target: T6, RON (MSP Receptor ECD-His tag) (UniProt Q04912 25-957, limits assumed); assay: Direct Bind ELISA, antigen on plate
T6 construct: extracellular domain; Bought reagent

[4] = molecular target: T5, his-tagged, recombinant RON protein …; assay: IgG-Fc capture ELISA, his-tagged RON
biotinylated VEGF = biotinylated VEGF (UniProt P15692-4 27-191, limits assumed, biotinylated); assay: capture ELISA, DVD-Ig captured by anti-human Fc, biotinylated VEGF; N-terminal VD
biotinylated VEGF, sequence (P15692 other isoform, or with tags, fused parts or gaps limits assumed): as above

[5] = molecular target: T7, biotin-labeled human IGF1 (human, UniProt P05019 49-118, biotin-labeled); assay: capture ELISA, DVD-Ig captured by anti-human Fc, biotin-labeled IGF1; C-terminal VD
[6] = molecular target: T8, biotin-labeled human IGF2 (human, UniProt P01344 25-91, biotin-labeled); assay: capture ELISA, DVD-Ig captured by anti-human Fc, biotin-labeled IGF2; C-terminal VD
HGF (HGF-His tag) = molecular target: T9, HGF (HGF-His tag) (UniProt P14210 32-728); assay: Direct Bind ELISA, antigen on plate
T9 construct: Bought reagent
T9 sequence (P14210 32-728 limits assumed): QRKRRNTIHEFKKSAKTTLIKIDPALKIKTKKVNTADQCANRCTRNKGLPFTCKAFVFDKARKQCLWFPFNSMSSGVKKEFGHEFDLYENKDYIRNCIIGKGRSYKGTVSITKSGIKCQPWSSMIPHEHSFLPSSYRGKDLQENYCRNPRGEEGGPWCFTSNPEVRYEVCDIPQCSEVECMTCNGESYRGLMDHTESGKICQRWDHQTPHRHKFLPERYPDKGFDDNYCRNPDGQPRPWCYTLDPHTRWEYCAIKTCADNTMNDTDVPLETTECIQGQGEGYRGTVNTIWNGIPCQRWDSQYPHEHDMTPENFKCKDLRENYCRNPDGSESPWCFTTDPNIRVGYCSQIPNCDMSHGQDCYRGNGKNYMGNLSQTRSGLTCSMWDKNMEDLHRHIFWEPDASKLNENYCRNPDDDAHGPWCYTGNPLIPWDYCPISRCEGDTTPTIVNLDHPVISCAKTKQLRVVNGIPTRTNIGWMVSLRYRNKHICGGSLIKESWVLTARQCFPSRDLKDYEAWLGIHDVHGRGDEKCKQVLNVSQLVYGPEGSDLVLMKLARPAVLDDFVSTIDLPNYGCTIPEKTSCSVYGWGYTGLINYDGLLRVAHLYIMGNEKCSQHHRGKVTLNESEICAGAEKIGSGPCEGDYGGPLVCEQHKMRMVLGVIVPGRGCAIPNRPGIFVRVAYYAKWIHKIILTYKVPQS

IGF1R ECD = molecular target: T10, IGF1R ECD (UniProt P08069 31-935, limits assumed); assay: Direct Bind ELISA, antigen on plate
T10 construct: extracellular domain; Bought reagent

[7] = molecular target: T11, IGF1R (antigen of the capture ELISA table) (UniProt P08069 31-932, limits assumed); assay: antigen capture ELISA, IGF1R
T11 construct: No IGF1R capture ELISA method is described; also called IGFR

EGFR on A431 cells [8] = molecular target: T12, EGFR on A431 cells (human, UniProt P00533 25-1210); assay: cell-based or functional assay
ErbB3 on A431 cells [9] = molecular target: T13, ErbB3 on A431 cells (human, UniProt P21860 20-1342); assay: cell-based or functional assay
EGFR on A431 cells [10] = molecular target: T12, EGFR on A431 cells; assay: cell-based or functional assay; remark: listed apart in the source
ErbB3 on A431 cells [11] = molecular target: T13, ErbB3 on A431 cells; assay: cell-based or functional assay; remark: listed apart in the source
[12] = molecular target: T7, biotin-labeled human IGF1; assay: capture ELISA, antibody captured by anti-human Fc, biotin-labeled IGF1
[13] = molecular target: T8, biotin-labeled human IGF2; assay: capture ELISA, antibody captured by anti-human Fc, biotin-labeled IGF2

B4: DVD496 (bispecific antibody, human IgG1, kappa)
heavy: not shown
light: DIQMTQSPSSLSASVGDRVTITCRASQDVSTAVAWYQQKPGKAPKLLIYSASFLYSGVPSRFSGSGSGTDFTLTISSLQPEDFATYYCQQSYTTPPTFGQGTKVEIKRTVAAPSVFIFPPDIQMTQSSSYLSVSLGGRVTITCKASDHINNWLAWYQQKPGNAPRLLISGATSLETGVPSRFSGSGSGKDYTLSITSLQTEDVATYYCQQYWSIPLTFGAGTKLELKRTVAAPSVFIFPPSDEQLKSGTASVVCLLNNFYPREAKVQWKVDNALQSGNSQESVTEQDSKDSTYSLSSTLTLSKADYEKHKVYACEVTHQGLSSPVTKSFNRGEC
notes: DVD-Ig; N-term; AB070 (VEGF), C-term; AB072 (DLL4); HC linker long, LC linker long; also called DVD-Ig DVD496; DVD496H/DVD496L
- EC50 [1]: 108 nM

B6: AB005 (anti-RON (seq. 1) parent antibody) (antibody, IgG1, V domains shown)
VH: EVQLVQSGGGLVKPGGSLRLSCAASGFTFSSYAMHWVRQAPGKGLEWVAVISYDGSNKYYADSVKGRFTISRDNSKNTLYLQMNSLRAEDTAVYYCARFSGWPNNYYYYGMDVWGQGTTVTVSS
VL: DVVMTQSPLSLPVTPGEPASISCRSSQSLLHSNGFNYVDWYLQKPGQSPHLLIYFGSYRASGVPDRFSGSGSGTDFTLKISRVEAEDVGVYYCMQALQTPPWTFGQGTKVEIRR
notes: HC vector V1 (wild-type hIgG1 constant), LC vector V2 (kappa constant); also called AB005VH; AB005VL
- EC50 [3]: 0.26 nM and 0.21 nM

B7: AB005 (antibody, human IgG1, kappa, V domains shown)
VH: B6 VH
VL: B6 VL
- EC50 [4]: 1.6 nM and 0.7 nM and 1.3 nM

B10: AB011 (anti-IGF1R (seq. 1) parent antibody) (antibody, IgG1, V domains shown)
VH: EVQLLESGGGLVQPGGSLRLSCTASGFTFSSYAMNWVRQAPGKGLEWVSAISGSGGTTFYADSVKGRFTISRDNSRTTLYLQMNSLRAEDTAVYYCAKDLGWSDSYYYYYGMDVWGQGTTVTVSS
VL: DIQMTQFPSSLSASVGDRVTITCRASQGIRNDLGWYQQKPGKAPKRLIYAASRLHRGVPSRFSGSGSGTEFTLTISSLQPEDFATYYCLQHNSYPCSFGQGTKLEIKR
notes: HC vector V1 (wild-type hIgG1 constant), LC vector V2 (kappa constant); also called AB011VH; AB011VL
- EC50 (IGF1R ECD): 0.28 nM

B11: AB011 (antibody, human IgG1, kappa, V domains shown)
VH: B10 VH
VL: B10 VL
- EC50 [7]: 0.3 nM

B12: AB008 (anti-CD-22 antibody, used as control) (antibody, human IgG1, kappa, V domains shown)
VH: QVQLVQSGAEVKKPGSSVKVSCKASGYTFTSYWLHWVRQAPGQGLEWIGYINPRNDYTEYNQNFKDKATITADESTNTAYMELSSLRSEDTAFYFCARRDITTFYWGQGTTVTVSS
VL: DIQLTQSPSSLSASVGDRVTMSCKSSQSVLYSANHKNYLAWYQQKPGKAPKLLIYWASTRESGVPSRFSGSGSGTDFTFTISSLQPEDIATYYCHQYLSSWTFGGGTKLEIKR
- Inhibition Of A431 Proliferation (% Inhibition At 21.6 nM Ab/DVD) (EGFR on A431 cells [8]): 6%
- Inhibition Of A431 Proliferation (% Inhibition At 21.6 nM Ab/DVD) (ErbB3 on A431 cells [9]): 6%
- Inhibition Of EGFR Phosphorylation (% Inhibition At 60 nM Ab/DVD) (EGFR on A431 cells [10]): 4%
- Inhibition Of ErbB3 Phosphorylation (% Inhibition At 60 nM Ab/DVD) (ErbB3 on A431 cells [11]): 0%

B13: DVD498 (bispecific antibody, human IgG1, kappa)
heavy: not shown
light: DIQMTQSPSSLSASVGDRVTITCRASQVIRRSLAWYQQKPGKAPKLLIYAASNLASGVPSRFSGSGSGTDFTLTISSLQPEDFATYYCQQSNTSPLTFGQGTKVEIKRTVAAPSVFIFPPDIQMTQSSSYLSVSLGGRVTITCKASDHINNWLAWYQQKPGNAPRLLISGATSLETGVPSRFSGSGSGKDYTLSITSLQTEDVATYYCQQYWSIPLTFGAGTKLELKRTVAAPSVFIFPPSDEQLKSGTASVVCLLNNFYPREAKVQWKVDNALQSGNSQESVTEQDSKDSTYSLSSTLTLSKADYEKHKVYACEVTHQGLSSPVTKSFNRGEC
notes: DVD-Ig; N-term; AB071 (VEGF), C-term; AB072 (DLL4); HC linker long, LC linker long; also called DVD-Ig DVD498; DVD498H/DVD498L
- EC50 [1]: 30.6 nM

B14: AB010 (antibody, human IgG1, lambda, V domains shown)
VH: QVQLVQSGAEVKKPGASVKVSCKASGYTFTSYDINWVRQATGQGLEWMGWMNPNSGNTGYAQKFQGRVTMTRNTSISTAYMELSSLRSEDTAVYYCARDPYYYYYGMDVWGQGTTVTVSS
VL: QSVLTQPPSVSAAPGQKVTISCSGSSSNIENNHVSWYQQLPGTAPKLLIYDNNKRPSGIPDRFSGSKSGTSATLGITGLQTGDEADYYCETWDTSLSAGRVFGGGTKLTVLG
notes: also called IGF1,2 parent antibody
- EC50 [12]: 4.8 nM
- EC50 [13]: 10 nM and 18.1 nM

The remaining lines, values ahead:

- EC50 (PlGF): 0.13 nM and 0.14 nM
B1: AB047 (antibody, human IgG1, kappa, V domains shown)
VH: QVQLQQSGAELVKPGASVKISCKASGYTFTDYYINWVKLAPGQGLEWIGWIYPGSGNTKYNEKFKGKATLTIDTSSSTAYMQLSSLTSEDTAVYFCVRDSPFFDYWGQGTLLTVSS
VL: DIVLTQSPDSLAVSLGERVTMNCKSSQSLLNSGMRKSFLAWYQQKPGQSPKLLIYWASTRESGVPDRFTGSGSGTDFTLTISSVQAEDVAVYYCKQSYHLFTFGSGTKLEIKR
notes: also called AB047VH; AB047VL

- EC50 (VEGF): 20.9 nM
B2: AB071 (antibody, human IgG1, kappa, L234A L235A, V domains shown)
VH: EVQLVESGGGLVQPGGSLRLSCAASGFTINASWIHWVRQAPGKGLEWVGAIYPYSGYTNYADSVKGRFTISADTSKNTAYLQMNSLRAEDTAVYYCARWGHSTSPWAMDYWGQGTLVTVSS
VL: DIQMTQSPSSLSASVGDRVTITCRASQVIRRSLAWYQQKPGKAPKLLIYAASNLASGVPSRFSGSGSGTDFTLTISSLQPEDFATYYCQQSNTSPLTFGQGTKVEIKR
notes: also called AB071VH; AB071VL

- EC50 (VEGF 1-165 aa): 40.4 nM and 80.4 nM and 79.5 nM
B3: AB071 (antibody, human IgG1, kappa, L234A L235A, V domains shown)
VH: B2 VH
VL: B2 VL
notes: Vectors V7/V2

- EC50 [2]: 2.5 nM
B5: DVD033 (bispecific antibody, human IgG1, kappa)
heavy: not shown
light: DVVMTQSPLSLPVTPGEPASISCRSSQSLLHSNGFNYVDWYLQKPGQSPHLLIYFGSYRASGVPDRFSGSGSGTDFTLKISRVEAEDVGVYYCMQALQTPPWTFGQGTKVEIRRTVAAPDIQMTQSPSSVSASVGDRVTITCRASQGISSWLAWYQQKPGKAPNLLIYEASSLQSGVPSRFGGSGSGTDFTLTISSLQPEDFATYYCQQANGFPWTFGQGTKVEIKRTVAAPSVFIFPPSDEQLKSGTASVVCLLNNFYPREAKVQWKVDNALQSGNSQESVTEQDSKDSTYSLSSTLTLSKADYEKHKVYACEVTHQGLSSPVTKSFNRGEC
notes: DVD-Ig; also called RON / HGF DVD-Ig; DVD033H

- EC50 (biotinylated VEGF): 0.7 nM
- EC50 [5]: 381 nM
- EC50 [6]: 7340 nM
B8: DVD041 (bispecific antibody, human IgG1, lambda)
heavy: not shown
light: DIQMTQSPSSLSASVGDRVTITCSASQDISNYLNWYQQKPGKAPKVLIYFTSSLHSGVPSRFSGSGSGTDFTLTISSLQPEDFATYYCQQYSTVPWTFGQGTKVEIKRTVAAPQSVLTQPPSVSAAPGQKVTISCSGSSSNIENNHVSWYQQLPGTAPKLLIYDNNKRPSGIPDRFSGSKSGTSATLGITGLQTGDEADYYCETWDTSLSAGRVFGGGTKLTVLGQPKAAPSVTLFPPSSEELQANKATLVCLISDFYPGAVTVAWKADSSPVKAGVETTTPSKQSNNKYAASSYLSLTPEQWKSHRSYSCQVTHEGSTVEKTVAPTECS
notes: DVD-Ig; also called VEGF / IGF1,2 DVD-Ig; DVD041H

- EC50 (HGF (HGF-His tag)): 0.22 nM and 0.19 nM
B9: AB012 (anti-HGF (seq. 1) parent antibody) (antibody, IgG1, V domains shown)
VH: QVQLVESGGGLVKPGGSLRLSCAASGFTFSDYYMSWIRQAPGKGLEWVSYISSSGSTIYYADSVKGRFTISRDNAKNSLYLQMNSLRAEDTAVYYCARDEYNSGWYVLFDYWGQGTLVTVSS
VL: DIQMTQSPSSVSASVGDRVTITCRASQGISSWLAWYQQKPGKAPNLLIYEASSLQSGVPSRFGGSGSGTDFTLTISSLQPEDFATYYCQQANGFPWTFGQGTKVEIKR
notes: HC vector V1 (wild-type hIgG1 constant), LC vector V2 (kappa constant); also called AB012VH; AB012VL
